Assay results published in US11708418.

Columns and labels:
[1] = molecular target: Daratumumab (Darzalex; lot GHS0901, Janssen, USA); assay: anti-CD38 (DARATUMUMAB) inhibition IAT, ability to titrate the antibody, CD38ecd-Fc-10H as reference
[2] = molecular target: Daratumumab (Darzalex; lot GHS0901, Janssen, USA); assay: IAT inhibition; 25 µl Darzalex dilution with 2 µl of 8.5 mg/ml protein

Sequence of CD38ecd-flex-Fc-10H (P28907 45-300): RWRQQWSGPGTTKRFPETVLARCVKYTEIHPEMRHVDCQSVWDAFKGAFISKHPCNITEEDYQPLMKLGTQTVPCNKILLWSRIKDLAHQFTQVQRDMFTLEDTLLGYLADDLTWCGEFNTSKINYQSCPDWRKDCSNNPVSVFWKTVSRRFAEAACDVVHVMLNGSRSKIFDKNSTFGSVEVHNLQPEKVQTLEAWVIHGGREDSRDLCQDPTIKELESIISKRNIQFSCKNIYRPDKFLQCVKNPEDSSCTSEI
Sequence of CD38ecd-Fc (P28907 45-300 limits assumed): as the sequence (P28907 45-300) above

Row | Functionality [1] | anti-CD38 concentration completely inhibited [2] | Substance
1 | 50% | – | CD38ecd-Fc (from UniProt P28907 45-300) (Fc fusion)
2 | 100% | 0.125 mg/mL | CD38ecd-flex-Fc-10H (from UniProt P28907 45-300) (Fc fusion)
